What was measured:
[1] = target: Wild-type GPIbα, residues 1-290, with Avi-tag, biotinylated; experiment: BLI
[2] = target: A1 short (human) (UniProt P04275); experiment: ITC

## A1 short (from UniProt P04275 1264-1469) (domain or fragment)
[1]
  Kd: 0.18 µM

## A1+C (from UniProt P04275 1264-1486) (domain or fragment)
[1]
  fold lower affinity than A1 short: 2.5 fold

## A1+N (from UniProt P04275 1238-1469) (domain or fragment)
[1]
  fold lower affinity than A1 short: 4.3 fold

## A1+N+C (from UniProt P04275 1238-1486) (domain or fragment)
[1]
  fold lower affinity than A1 short: 10 fold

## A1+OGly+C (from UniProt P04275 1264-1489) (domain or fragment)
[1]
  fold lower affinity than A1+C: 2 fold
  fold lower affinity than A1 without linkers: 6 fold

## A1+OGly+N (from UniProt P04275 1238-1469) (domain or fragment)
[1]
  fold lower affinity than A1+N: 10 fold
  fold lower affinity than A1 without linkers: 51 fold

## A1+OGly+N+C (from UniProt P04275 1238-1489) (domain or fragment)
[1]
  Kd: 9.2 µM
  fold increase in affinity in 10 mM against 150 mM NaCl: 20 fold
  fold increase in kon in 10 mM against 150 mM NaCl: 7 fold
  fold lower affinity than with the O-glycosylated N-linker alone: 1.2 fold

## Wild-type GPIbα, residues 1-290, without Avi-tag (domain or fragment)
[2]
  fold higher affinity than A1+OGly+N+C: 39 fold

— publication doi:10.1101/2022.01.13.476208
